Assay results reported in US7127357.

Legend:
[1] = biological target: YpSPTpSPS (CTD-S2/S5), doubly phosphorylated CTD peptide (human); assay: fluorescence anisotropy
[2] = biological target: GSSpSPV (Wee1-S123), rhodamine-labeled (human); assay: fluorescence anisotropy, labeled peptide constant, protein varied
[3] = biological target: LYRpSPS (Cdc25c-S214), rhodamine-labeled (human); assay: as above
[4] = biological target: PPApTPP (Myt1-T412), rhodamine-labeled (human); assay: as above
[5] = biological target: PPGpSPP (Myt1-S416), rhodamine-labeled (human); assay: as above
[6] = biological target: STSpTPR (Myt1-T455), rhodamine-labeled (human); assay: as above
[7] = biological target: VPRpTPV (Cdc25c-T48), rhodamine-labeled (human); assay: as above
[8] = biological target: WFYpSPFLE (Pintide), rhodamine-labeled; assay: as above
[9] = biological target: YLGpSPI (Cdc25c-S168), rhodamine-labeled (human); assay: as above
[10] = biological target: YSPTpSPS (CTD-S5), rhodamine-labeled (human); assay: as above
[11] = biological target: YpSPTSPS (CTD-S2), rhodamine-labeled (human); assay: as above
[12] = biological target: YpSPTpSPS (CTD-S2/S5), doubly phosphorylated CTD peptide (human); assay: as above

fold reduction in binding affinity (against wild type Pin1) [1] [fold] | Kd [2] [µM] | Kd [3] [µM] | Kd [4] [µM] | Kd [5] [µM] | Kd [6] [µM] | Kd [7] [µM] | Kd [8] [µM] | Kd [9] [µM] | Kd [10] [µM] | Kd [11] [µM] | Kd [12] [µM] | Substance
6 | – | – | – | – | – | – | – | – | – | – | – | Pin1 Trp-34 to Phe mutant (from UniProt Q13526 1-163) (enzyme)
– | 73 | 47 | 12 | 80 | 46 | 4.9 | 17 | 69 | 30 | 61 | 10 | human Pin1 (full length, wild type) (from UniProt Q13526 1-163) (enzyme)
– | – | – | – | – | – | – | 86 | – | – | – | 390 | isolated PPIase domain of human Pin1 (from UniProt Q13526 50-163) (enzyme)
– | – | 72 | 15 | 126 | 39 | 7.7 | 44 | 91 | 34 | 110 | 34 | isolated WW domain of human Pin1 (from UniProt Q13526 1-39)
